Assay results as given in US20240174992A1, “SPLIT MODIFIED DEHALOGENASE VARIANTS” (Promega Corporation, priority 2022, published 2024).

Experiments:
[1] = Complementation of N-terminal split HaloTag constructs in E. coli lysates, Janelia Fluor ligand fluorescence; assay type: biochemical; settings: 500 nM Rapamycin, 50 nM JF646
Description: FIG. 21A-B. Comparison of complementation activity of N-terminal split HaloTag constructs. Each HaloTag fragment was expressed separately in E. coli and then combined after lysis. The smaller N-terminal HaloTag fragments as FKBP fusions were tested against the larger fragments of FIG. 21A HT(23-297)-FRB or FIG. 21B HT(22-297)-FRB. To each reaction, 500 nM Rapamycin was added and incubated at room temperature for 2.5 hours prior to addition of 50 nM JF646 ligand and measurement of fluorescence at the indicated timepoint.
FIG. 22. Comparison of truncations of N-terminal split HaloTag constructs. Each HaloTag fragment was expressed separately in E. coli and then combined after lysis. […] To each reaction, 500 nM Rapamycin was added and incubated at room temperature for 2 hours prior to addition of 50 nM JF646 ligand and measurement of fluorescence at the indicated timepoint.
FIG. 25A-B. Mutations in N-terminal split HaloTag fragments improve fluorescence intensity and fold response. […] To each reaction, 500 nM Rapamycin was added and incubated at room temperature for 2 hours prior to addition of 50 nM JF646 ligand and measurement of fluorescence at the indicated timepoint. FIG. 25A Fluorescence intensity is shown for +Rapamycin condition to show the overall system brightness relative to FIG. 25B Fold response following Rapamycin addition. […]

[2] = target: T1, BRD4:Histone H3 interaction (Homo sapiens, UniProt O60885); assay: Single live cell time-lapse imaging after JQ1 addition (SmHaloTag dissociation); assay type: cell-based; settings: 20 micromolar JQ1, up to about 5 hours, ligand-bound
T1 construct: HaloTag[3-19]; expressed in transfected cells; host or cells: HeLa cells
Description: FIG. 139. Quantitation of single live cell time-lapse imaging of inhibition of the BRD4:Histone H3 interaction using split HaloTag fluorescence. […] The intensity of a single cell in both the green and the far-red channel plus its occupied area was tracked over this period.
Measurement of the fluorescence intensity of Split HaloTag after the dissociation of the Small HaloTag peptide, HaloTag[3-19], was tested. After the separation of the SmHaloTag, the Large HaloTag, HaloTag[22-297](M2F), is still covalently bound to the ligand but does the Small HaloTag dissociation affect the ligand fluorogenicity/activity? Time-lapse live cell imaging was performed to address this question. To ensure the tracked cell was viable during the experiment, the area occupied by that specific cell was measured at all time points.

[3] = tested on: synthetic HaloTag[3-19] peptide; assay: Complementation of large HaloTag fragment in E. coli lysates with synthetic HaloTag[3-19] peptide, JF646; assay type: binding; settings: for Kd: synthetic HaloTag[3-19] peptide titration up to 1 mM, estimated from saturation of fluorescence signal, read-out: affinity between the split HaloTag fragments
Description: FIG. 30. Complementation of HaloTag[22-297](M2F) fragment in E. coli lysates using a synthetic HaloTag[3-19] peptide. […] Reactions were incubated for 2 hours at room temperature and then labeled with 50 nM JF646 HaloTag ligand prior to fluorescence detection.
FIG. 31. Complementation of HaloTag[22-297](Q145H+P154R) fragment in E. coli lysates using a synthetic HaloTag[3-19] peptide. […] Reactions were incubated for 2 hours at room temperature and then labeled with 50 nM JF646 HaloTag ligand prior to fluorescence detection.

HeLa cells [4] = assay: Live cell confocal imaging of split HaloTag in the FRB/FKBP model system in HeLa cells; assay type: cell-based; settings: for signal-to-background ratio, complemented split HaloTag over labeling the large HaloTag alone: presence of Rapamycin; for S:B ratio in +rapamycin/−rapamycin conditions: with HaloTag[3-19] fragment, JF646 imaging
Description: (§1) FIG. 105. Live cell imaging of split HaloTag activity in mammalian cells using a model protein interaction system showing dependence on interaction facilitation for labeling. HeLa cells transiently transfected with plasmids expressing both EGFP-FKBP-HaloTag[3-19] and HaloTag[22-297](Q145H+P154R)-FRB were imaged in +/−Rapamycin conditions; in +Rapamycin condition cells were incubated with 1 micromolar Rapamycin overnight at 37° C. Prior to imaging by confocal microscopy, cells were labeled with 100 nM JF646 HaloTag ligand for 30 minutes at 37° C. The Imaging data were collected in the Far-red channel (Ex. 637 nm, left) and the green channel (Ex. 488 nm, right).
(§2) FIG. 106. Quantitation of live cell imaging of split HaloTag activity in mammalian cells using a model protein interaction system. HeLa cells transiently transfected with plasmids expressing both EGFP-FKBP-HaloTag[3-19] and HaloTag[22-297](Q145H+P154R)-FRB were imaged in +/−Rapamycin conditions; in +Rapamycin condition cells were incubated with 1 micromolar Rapamycin overnight at 37° C. Prior to imaging by confocal microscopy, cells were labeled with 100 nM JF646 HaloTag ligand for 30 minutes at 37° C. Comparison of the fluorescence intensity of non-complemented vs. complemented split HaloTag in +/−RAP conditions in the far-red channel, respectively.
as §1, with “107.” for “105.”, “HaloTag[22-297](M2F)-FRB” for “HaloTag[22-297](Q145H+P154R)-FRB”
as §2, with “FIG. 108. Quantitation of” for “FIG. 106. Quantitation of”, “EGFP-FKBP-HaloTag[3-19] and HaloTag[22-297](M2F)-FRB were imaged” for “EGFP-FKBP-HaloTag[3-19] and HaloTag[22-297](Q145H+P154R)-FRB were imaged”, “minutes at Comparison of” for “minutes at 37° C. Comparison of”
FIG. 109. […] Each dot represents the intensity of an imaged cell as quantitated using CellProfiler software.
FIG. 115. Live cell imaging of split HaloTag activity in mammalian cells. HeLa cells transiently transfected with plasmids expressing both EGFP-FKBP-HaloTag[3-19] and HaloTag[22-297](Q145H+P154R)-FRB were imaged in +Rapamycin condition, 1 micromolar Rapamycin overnight incubation at 37° C. Prior to imaging by confocal microscopy, cells were labeled with 100 nM JF646 HaloTag ligand for 30 minutes at 37° C. The Imaging data were collected in the Far-red channel (Ex. 637 nm, bottom) and the green channel (Ex. 488 nm, top).
FIG. 116. Live cell imaging of split HaloTag activity in mammalian cells. HeLa cells transiently transfected with plasmids expressing both EGFP-FKBP-HaloTag[3-19] and HaloTag[22-297](Q145H+P154R)-FRB were imaged in and −Rapamycin condition. […]

[5] = target: T2, BRD4:Histone H3.3 interaction (Homo sapiens, UniProt O60885); assay: Live cell imaging of the BRD4:Histone H3 interaction with split HaloTag in HeLa cells; assay type: cell-based; settings: second experiment, lower laser intensity
T2 construct: HaloTag[3-19]; expressed in transfected cells; host or cells: HeLa cells
Description: The Imaging data were collected in the far-red channel (Ex. 637 nm) and the green channel (Ex. 488 nm).
The imaging data were collected in the far-red channel (Ex. 637 nm) and the green channel (Ex. 488 nm). * DIC: Differential Interference Contrast.
The imaging data were collected in the far-red channel (Ex. 637 nm) and the green channel (Ex. 488 nm).
Each dot represents the intensity of an imaged cell. CellProfiler software is used for analysis. The horizontal line in each set indicates the median of the data.
Each dot represents the intensity of an imaged cell. CellProfiler software is used for this analysis. The horizontal line is indicative of the median of the data.
A second set of imaging experiments was performed to confirm reproducibility and show improvement of the system's signal-to-background ratio by changing a few confocal microscope settings, such as lower gain and laser intensity (FIG. 132).
The purpose of the second experiment (FIG. 131-134) with lower signal intensity was to see if most of the background signal could be eliminated with the cost of the overall reduction in the specific signal in the far-red channel.

HeLa cells [6] = assay: Lytic TMR assay of large HaloTag fragment expression in HeLa cells; assay type: cell-based; settings: complemented and non-complemented forms
Description: FIG. 124. Comparing the expression of HaloTag[22-297](Q145H+P154R) and HaloTag[22-297](M2F) when complemented with the small HaloTag fragment in mammalian cells. 50 ul of HeLa cells lysate that was transiently transfected with plasmids expressing EGFP-FKBP-HaloTag[3-19], HaloTag[22-297](Q145H+P154R)-FRB or HaloTag[22-297](M2F)-FRB plasmids and were incubated with 500 nM Rapamycin at room temperature for 2 hours to induce HaloTag fragments complementation. TMR HaloTag ligand at 2 micromolar was added to all wells and incubated at room temperature in the dark overnight prior to resolution by SDS-PAGE and fluorescence detection.
Experiments were conducted during development of embodiments herein to compare the expression of HaloTag[22-297](Q145H+P154R) vs. HaloTag[22-297](M2F) as complemented with the small HaloTag fragment HaloTag[3-19] and non-complemented form in mammalian cells (FIG. 124).

[7] = Kinetic labeling assay with TMR ligand, fluorescence polarization, synthetic peptide complementation; assay type: biochemical, E. coli; settings: 10 nM TMR ligand
Description: FIG. 32. Complementation of HaloTag[22-297](M2F) fragments using a synthetic HaloTag[3-19] peptide in a kinetic labeling assay.
A different HaloTag ligand (TMR) and fluorescence polarization assay format can be used to measure complementation with synthetic peptides (FIG. 32). […] At high peptide concentrations, the complementation with the peptide results in greater labeling rates.
The LgHT variant, HaloTag[22-297](Q145H+P154R), was also tested with the HaloTag ligand (TMR) in the fluorescence polarization assay format to measure complementation with synthetic peptides (FIG. 33). The relative kinetic rate of labeling is higher for this mutant without peptide due to its greater intrinsic stability and expression in E. coli lysates.

[8] = compared with HaloTag[22-297](M2F)

Row | Molecule | effect of mutation in the HT(22-297) large fragment on system performance [1] | change in cell intensity upon SmHaloTag dissociation [2] | Kd [3] [nM] | signal-to-background ratio, complemented split HaloTag over labeling the large HaloTag alone (HeLa cells [4]) | S:B ratio in +rapamycin/−rapamycin conditions (HeLa cells [4]) | S:B ratio, background from labeling the large HaloTag [5] | expression in mammalian cells (HeLa cells [6]) | complemented signal [3, 8] | fold response [3, 8] | response to Rapamycin (HeLa cells [4]; HaloTag[3-19] fusion plus variant LgHT fusion, 1 micromolar Rapamycin, 100 nM JF646) [fold] | labeling rate in the presence of peptide [7] | apparent affinity for the peptide (saturates fluorescence intensity at higher peptide concentrations) | lowest peptide concentration with measurable fold response (synthetic HaloTag[3-19] peptide)
1 | HaloTag[22-297](M2F): large HaloTag fragment, positions 22-297 with M to F substitution at second position (protein) MFHYVDVGPRDGTPVLFLHGNPTSSYVWRNIIPHVAPTHRCIAPDLIGMGKSDKPDLGYFFDDHVRFMDAFIEALGLEEVVLVIHDWGSALGFHWAKRNPERVKGIAFMEFIRPIPTWDEWPEFARETFQAFRTTDVGRKLIIDQNVFIEGTLPMGVVRPLTEVEMDHYREPFLNPVDREPLWRFPNELPIAGEPANIVALVEEYMDWLHQSPVPKLLFWGTPGVLIPPAEAARLAKSLPNCKAVDIGPGLNLLQEDNPDLIGSEIARWLSTLEISG | improve the fold response | reduces almost by half | > 100000 | 16 | about 6.7 | 12 | – | – | – | – | – | – | –
2 | HaloTag[22-297](Q145H+P154R): variant of the LgHT, positions 22-297 with HaloTag9 mutations (protein) MMHYVDVGPRDGTPVLFLHGNPTSSYVWRNIIPHVAPTHRCIAPDLIGMGKSDKPDLGYFFDDHVRFMDAFIEALGLEEVVLVIHDWGSALGFHWAKRNPERVKGIAFMEFIRPIPTWDEWPEFARETFQAFRTTDVGRKLIIDHNVFIEGTLRMGVVRPLTEVEMDHYREPFLNPVDREPLWRFPNELPIAGEPANIVALVEEYMDWLHQSPVPKLLFWGTPGVLIPPAEAARLAKSLPNCKAVDIGPGLNLLQEDNPDLIGSEIARWLSTLEISG | significantly enhanced the labeling speed | – | ~1000 | 5.7 | about 4 | – | expressed better than HaloTag[22-297](M2F) | higher complemented signal | lower fold response | 25 | faster labeling rates relative to the HaloTag[22-297](M2F) mutant | higher apparent affinity for the peptide | mid-nanomolar range
